The values that follow come from patent US20220064331A1 (Genentech, published 2022).

One test deals with T1, FGFR1b (human, UniProt P11362-19 22-376, limits assumed).
T1 construct: soluble protein in SPR and ELISA, whole receptor on L6 cells in the luciferase assay
T1 sequence (looked up): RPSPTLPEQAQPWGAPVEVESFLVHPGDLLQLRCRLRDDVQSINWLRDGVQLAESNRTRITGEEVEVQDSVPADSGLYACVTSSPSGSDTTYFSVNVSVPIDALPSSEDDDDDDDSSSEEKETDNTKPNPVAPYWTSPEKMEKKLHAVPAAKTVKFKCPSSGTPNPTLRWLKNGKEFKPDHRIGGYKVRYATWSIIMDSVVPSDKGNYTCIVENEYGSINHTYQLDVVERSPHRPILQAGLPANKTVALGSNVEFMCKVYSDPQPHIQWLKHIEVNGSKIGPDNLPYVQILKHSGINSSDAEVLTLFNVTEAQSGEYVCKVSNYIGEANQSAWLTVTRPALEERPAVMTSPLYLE
The test can be described thus: SPR (BIACORE T100), antibody captured by anti-human Fc on a CM5 chip, FGFR1 ECD protein injected, 25 °C, 1:1 Langmuir fit. (SPR reads the build-up and loss of mass on a sensor chip optically.)

Test [1] deals with T2, human KLB / human FGFR1c complex on cells (human, UniProt Q86Z14 53-1044; P11362 22-822). The test can be described thus: cell-based or functional assay.
The target in test [2] is T2, human KLB / human FGFR1c complex on …. The test is described as follows: radiolabeled ligand competition binding (iodinated FGF21) on HEK293 cells expressing human FGFR1c and human KLB.
Experimental: For the radioligand cell binding assay, HEK293 cells that stably co-expressing KLB and/or FGFR1c were placed into 96-well plate at a density of 100,000 to 200,000 cells per 0.2 mL in binding buffer (DMEM with 1% bovine serum albumin (BSA), 50 mM HEPES, pH 7.2, 0.1% sodium azide and 350 mM human IgG). […] Competition reactions with cells were incubated for 2 h at room temperature.

B1: YW182.2 (antibody, V domains shown)
VH: EVQLVESGGGLVQPGGSLRLSCAASGFTFTSTWISWVRQAPGKGLEWVGEIDPYDGDTYYADSVKGRFTISADTSKNTAYLQMNSLRAEDTAVYYCATEHFDAWVHYYVMDYWGQGTLVTVSS
VL: DIQMTQSPSSLSASVGDRVTITCRASQDVSTAVAWYQQKPGKAPKLLIYSASFLYSGVPSRFSGSGSGTDFTLTISSLQPEDFATYYCQQSYTTPPTFGQGTKVEIK
One may read the Kd as the constant that tells how readily two partners part at equilibrium. Read a low Kd as tighter binding. For orientation: koff means the first-order rate constant of dissociation. One may read the kon as a measure of how fast the partners come together. For B1, in the test with FGFR1b, the Kd is 1.13 nM, the koff is 0.0022 s⁻¹ and the kon is 1.9e+06 M⁻¹ s⁻¹.

B2: hFGF21 (ligand, human, UniProt Q9NSA1 29-209, looked up)
chain: HPIPDSSPLLQFGGQVRQRYLYTDDAQQTEAHLEIREDGTVGGAADQSPESLLQLKALKPGVIQILGVKTSRFLCQRPDGALYGSLHFDPEACSFRELLLEDGYNVYQSEAHGLPLHLPGNKSPHRDPAPRGPARFLPLPGLPPALPEPPGILAPQPPDVGSSDPLSMVGPSQGRSPSYAS
notes: also called recombinant FGF21
On to B2, for which the “EC50 in GAL-ELK1 assay in HEK293 cells” value in test [1] was determined as 4.7 nM. For the same molecule, the Kd in test [2] stood at 5.3 nM.
